Laboratory results: publication PMC2954370 (Antiviral research, 2010)

B1: HIV-1 envelope glycoprotein gp120 of isolate Bal (natural protein)
chain: not shown

Assays:
[1] = molecular target: fusion protein of m36 with human IgG1 Fc (human); test: ELISA
[2] = molecular target: T1, HIV-1 Env gp140 of isolate JRFL (HIV-1 isolate JRFL (clade B), UniProt Q75760); test: cell-based or functional assay
[3] = molecular target: B1; test: cell-based or functional assay
[4] = molecular target: T1, HIV-1 Env gp140 of isolate JRFL; test: ELISA
[5] = molecular target: B1; test: ELISA

| Binder | binding result [1] | IC50 of neutralisation of HIV-1 JRFL Env-pseudotyped virus, HOS-CD4-CCR5 cells [2] [nM] | IC50 of neutralisation of HIV-1 Bal Env-pseudotyped virus, HOS-CD4-CCR5 cells [3] [nM] | binding result [4] | binding result [5] |
| --- | --- | --- | --- | --- | --- |
| B1 | binds |  |  |  |  |
| m36 mutant m36.4 (VHH) VHH: QVQLVQSGGGLVQPGGSLRLSCAASAFDFSDYEMSWVREAPGKGLEWIGEINDSGNTIYNPSLKSRVTISRDNSKNTLYLQMNTLRAEDTAIYYCAIYGGNSGGEYWGQGTLVTVSS |  | 27 | 11 |  |  |
| m36 mutant m36.5 (VHH) VHH: QVQLVQSGGGLVQPGGSLRLSCAASAFDFSDYEMSWVREAPGKGLEWIGEINDSGNTIYNPSLKSRVTISRDNSKNTLYLQMNTLSAEDTAIYYCAIYGGNSGGEYWGQGTLVTVSS |  |  |  | binds | binds |
| m36 mutant m36.1 (VHH) VHH: QVQLVQSGGGLVQPGGSLRLSCAASTFDFSDYEMSWVREAPGKGLEWIGEINDSGNTIYNPSLKNRVTISRDNSKNTLYLQMNTLRAEDTAIYYCAIYGGNSGGEYWGQGTLVTVSS |  |  |  | binds | binds |
